Results taken from US20230277632A1, “MODIFIED PlySs2 LYSINS AND ANTIBIOTIC COMBINATIONS FOR USE AGAINST GRAM-POSITIVE BACTERIA” (ContraFect Corporation, priority 2020, published 2023).
Values joined by “and” are separate entries in the source; they are usually repeats but may differ in a detail not shown here. Equal values may be shown once.

Tests used:
[1] = test system: S. aureus; assay: pp296 dose fractionation study, neutropenic murine thigh infection model; assay type: in vivo
Protocol: Each of the pp296 TDDs was fractionated into three regimens, i.e., one-third of the entire dose was administered via IV three times (q8h); one-half of the entire does was administered via IV two times (q12h), or the entire dose was administered via IV once daily over a 24-hour period, for a total of three groups per each TDD.
Untreated control mice (n=3/group) were sacrificed just prior to antibiotic administration, as well as 24 hours later. Animals sacrificed prior to antibiotic administration served as 0-hour control animals, representing initial bacterial burden. The 24-hour control animals received sterile normal saline in the same volume and schedule as the most frequent active drug regimen. […] After the 24-hour treatment period, all animals were euthanized and thighs were cultured quantitatively as described above. The change in bacterial density was calculated for each of the dosing regimen. Comparisons were made between the different regimens of the same total daily dose on bacterial burdens at 24 hours using one-way Analysis of Variance (ANOVA) test followed by Tukey's test where the P value was 0.05.

[2] = test system: S. aureus isolates; assay: In vivo efficacy of vancomycin in combination with pp296, neutropenic murine thigh infection model; conditions: 24 h
Protocol: Study animals: Specific pathogen-free female ICR mice (average body weight 23 grams) were provided food and water ad libitum and maintained and used in accordance with National Research Council recommendations. Animals were allowed a 48-hour post-delivery acclimation period before every experiment. Mice were rendered transiently neutropenic by injection of cyclophosphamide via intraperitoneal (IP) route at a dose of 150 mg/kg of body weight at four days before bacterial inoculation and 100 mg/kg of body weight at one day before bacterial inoculation.
Neutropenic Thigh Infection Model: Two transfers of the bacterial isolates were performed onto trypticase soy agar plates with 5% sheep blood and placed into an incubator at 37° C. for approximately 24 hours. After an 18-24 hour incubation of the second transfer, a suspension of approximately 10^7 CFU/mL was made for inoculation. Final bacterial inoculum concentrations were confirmed by serial dilution and plating techniques. Thigh infection with the test isolate was produced by intramuscular injection of 0.1 mL of the bacterial inoculum into each thigh of the mice. Antimicrobial therapy was initiated 2 hours after bacterial inoculation, as detailed below. […]
Untreated control mice (n=3) were sacrificed just prior to antibiotic administration and 24 hours after bacterial inoculation. Animals sacrificed prior to antibiotic initiation served as 0-hour control animals, representing initial bacterial burden. […] Treatment mice (n=3/group) were sacrificed at the end of the 24 hour treatment period. After sacrifice, both thighs for each mouse were homogenized in normal saline. Serial dilutions were plated on Trypticase soy agar with 5% sheep blood and incubated for 18 to 20 hours at 37.0 to determine the CFU. Efficacy was calculated as the change in bacterial density obtained in treated mice after 24 hours compared with the numbers in the 0-hour control animals. Bacterial density represents the average CFU determined from 3 mice, each contributing 2 thighs.

B1: pp296: modified PlySs2 lysin, SEQ ID NO: 6: L92W, V104S, V128T, Y137S, Y164K, N184D, S198Q (protein)
chain: MTTVNEALNNVRAQVGSGVSVGNGECYALASWYERMISPDATVGLGAGVGWVSGAIGDTISAKNIGSSYNWQANGWTVSTSGPFKAGQIVTWGATPGNPYGHVSIVEAVDGDRLTILEQNYGGKRYPTRNYYSAASSRQQVVHYITPPGTVAQSAPNLAGSRSKRETGTMTVTVDALNVRRAPDTSGEIVAVYKRGEQFDYDTAIIDVNGYAWVSYIGGSGKRNYVATGATKDGKRFGNAWGTFK
efficacy of dose-fractionation (q12h v. q8h) compared with q24h ([1]; pp296 5 or 50 mg/kg/day IV with vancomycin or daptomycin): does not appear to provide enhanced efficacy | driver of efficacy (PK/PD index) ([1]; pp296 with vancomycin or daptomycin): AUC related | Replicate Log10 CFU/thigh data ([2]; ATCC2921, pp296 50 mg/kg alone, 50 mg/kg): 8.15 Log10 CFU/thigh (2×) and 8.58 Log10 CFU/thigh and 7.86 Log10 CFU/thigh and 6.81 Log10 CFU/thigh and 8.00 Log10 CFU/thigh | Replicate Log10 CFU/thigh data ([2]; CAIRD426, pp296 50 mg/kg alone (VAN 1.5 mg/kg study)): 5.41 Log10 CFU/thigh and 5.80 Log10 CFU/thigh and 7.92 Log10 CFU/thigh and 8.33 Log10 CFU/thigh and 4.90 Log10 CFU/thigh and 6.18 Log10 CFU/thigh | Replicate Log10 CFU/thigh data ([2]; CAIRD426, pp296 50 mg/kg alone, Run #1, 50 mg/kg): 6.04 Log10 CFU/thigh and 4.62 Log10 CFU/thigh and 5.46 Log10 CFU/thigh and 4.94 Log10 CFU/thigh and 6.53 Log10 CFU/thigh and 6.00 Log10 CFU/thigh | Replicate Log10 CFU/thigh data ([2]; CAIRD426, pp296 50 mg/kg alone, Run #2, 50 mg/kg): 8.14 Log10 CFU/thigh and 7.97 Log10 CFU/thigh and 4.83 Log10 CFU/thigh and 4.79 Log10 CFU/thigh and 5.84 Log10 CFU/thigh and 6.07 Log10 CFU/thigh | Replicate Log10 CFU/thigh data ([2]; HPV107, pp296 50 mg/kg alone (VAN 1.5 mg/kg study)): 8.08 Log10 CFU/thigh and 8.00 Log10 CFU/thigh and 7.05 Log10 CFU/thigh and 7.21 Log10 CFU/thigh and 4.64 Log10 CFU/thigh and 6.57 Log10 CFU/thigh | Replicate Log10 CFU/thigh data ([2]; HPV107, pp296 50 mg/kg alone, Run #1, 50 mg/kg): 5.08 Log10 CFU/thigh and 4.96 Log10 CFU/thigh and 5.36 Log10 CFU/thigh and 6.45 Log10 CFU/thigh and 6.14 Log10 CFU/thigh and 6.78 Log10 CFU/thigh | Replicate Log10 CFU/thigh data ([2]; HPV107, pp296 50 mg/kg alone, Run #2, 50 mg/kg): 7.35 Log10 CFU/thigh and 8.03 Log10 CFU/thigh (2×) and 6.53 Log10 CFU/thigh and 7.04 Log10 CFU/thigh and 6.30 Log10 CFU/thigh | Replicate Log10 CFU/thigh data ([2]; JMI227, pp296 50 mg/kg alone, 50 mg/kg): 5.01 Log10 CFU/thigh and 6.67 Log10 CFU/thigh and 7.71 Log10 CFU/thigh and 8.05 Log10 CFU/thigh and 4.72 Log10 CFU/thigh and 7.34 Log10 CFU/thigh | Replicate Log10 CFU/thigh data ([2]; JMI4789, pp296 50 mg/kg alone, 50 mg/kg): 5.02 Log10 CFU/thigh and 5.19 Log10 CFU/thigh and 7.69 Log10 CFU/thigh and 8.08 Log10 CFU/thigh and 5.11 Log10 CFU/thigh and 6.15 Log10 CFU/thigh | Replicate Log10 CFU/thigh data ([2]; NRS100, pp296 50 mg/kg alone (VAN 1.5 mg/kg study)): 4.79 Log10 CFU/thigh and 5.29 Log10 CFU/thigh and 4.72 Log10 CFU/thigh and 4.90 Log10 CFU/thigh (2×) and 5.73 Log10 CFU/thigh | Replicate Log10 CFU/thigh data ([2]; NRS100, pp296 50 mg/kg alone, Run #1, 50 mg/kg): 4.75 Log10 CFU/thigh and 4.81 Log10 CFU/thigh and 4.78 Log10 CFU/thigh and 4.83 Log10 CFU/thigh and 4.48 Log10 CFU/thigh and 4.70 Log10 CFU/thigh | Replicate Log10 CFU/thigh data ([2]; NRS100, pp296 50 mg/kg alone, Run #2, 50 mg/kg): 4.62 Log10 CFU/thigh and 4.73 Log10 CFU/thigh and 4.66 Log10 CFU/thigh and 4.41 Log10 CFU/thigh and 5.94 Log10 CFU/thigh and 6.34 Log10 CFU/thigh | Replicate Log10 CFU/thigh data ([2]; NRS123, pp296 50 mg/kg alone, 50 mg/kg): 6.53 Log10 CFU/thigh and 8.01 Log10 CFU/thigh and 8.08 Log10 CFU/thigh and 7.48 Log10 CFU/thigh and 8.41 Log10 CFU/thigh and 8.38 Log10 CFU/thigh | Replicate Log10 CFU/thigh data ([2]; NRS217, pp296 50 mg/kg alone (VAN 1.5 mg/kg study)): 7.46 Log10 CFU/thigh and 7.45 Log10 CFU/thigh and 4.60 Log10 CFU/thigh and 4.79 Log10 CFU/thigh and 7.49 Log10 CFU/thigh and 6.72 Log10 CFU/thigh | Replicate Log10 CFU/thigh data ([2]; NRS217, pp296 50 mg/kg alone, Run #1, 50 mg/kg): 4.75 Log10 CFU/thigh and 6.79 Log10 CFU/thigh and 5.06 Log10 CFU/thigh and 4.93 Log10 CFU/thigh and 5.72 Log10 CFU/thigh and 5.76 Log10 CFU/thigh | Replicate Log10 CFU/thigh data ([2]; NRS217, pp296 50 mg/kg alone, Run #2, 50 mg/kg): 5.35 Log10 CFU/thigh and 5.98 Log10 CFU/thigh and 6.08 Log10 CFU/thigh and 5.42 Log10 CFU/thigh and 4.32 Log10 CFU/thigh and 6.26 Log10 CFU/thigh | Replicate Log10 CFU/thigh data ([2]; isolate CAIRD426, pp296 50 mg/kg alone, VAN 5 mg/kg study): 8.95 Log10 CFU/thigh and 7.96 Log10 CFU/thigh and 7.74 Log10 CFU/thigh and 8.34 Log10 CFU/thigh | mean bacterial density vs starting inoculum ([2]; pp296 0.5 mg/kg IV + vancomycin 1.5 mg/kg SC, 4 isolates): 0.92±1.24 log10 CFU/thigh | mean bacterial reduction vs starting inoculum ([2]; pp296 0.5 mg/kg IV + vancomycin 3 mg/kg q12h SC, 8 isolates): −0.26±1.10 log10 CFU/thigh | mean bacterial reduction vs starting inoculum ([2]; pp296 0.5 mg/kg IV + vancomycin 5 mg/kg SC, 4 isolates): −0.59±0.79 log10 CFU/thigh | mean bacterial density vs starting inoculum ([2]; pp296 50 mg/kg IV + vancomycin 1.5 mg/kg SC, 4 isolates): −0.61±0.82 log10 CFU/thigh | mean bacterial reduction vs starting inoculum ([2]; pp296 50 mg/kg IV + vancomycin 3 mg/kg q12h SC, 8 isolates): −1.01±0.41 log10 CFU/thigh | mean bacterial reduction vs starting inoculum ([2]; pp296 50 mg/kg IV + vancomycin 5 mg/kg SC, 4 isolates): −0.85±0.54 log10 CFU/thigh | average growth vs starting inoculum ([2]; pp296 50 mg/kg alone, 4 isolates (VAN 1.5 mg/kg study)): 0.75±1.24 log10 CFU/thigh | average growth vs starting inoculum ([2]; pp296 50 mg/kg alone, 4 isolates (VAN 5 mg/kg study)): 1.44±1.43 log10 CFU/thigh | average growth vs starting inoculum ([2]; pp296 50 mg/kg q24h IV alone, 8 isolates (VAN 3 mg/kg study)): 0.37±1.27 log10 CFU/thigh
